In patent US20170081400A1 (CEPHALON, published 2017):
Where a chain is given by its changes, count along the chain named.

T1: human TL1A extracellular domain with N-terminal HIS and FLAG tag (human, UniProt O95150 72-251)
T1 construct: the whole entry is named; also called TNFSF15
T1 sequence: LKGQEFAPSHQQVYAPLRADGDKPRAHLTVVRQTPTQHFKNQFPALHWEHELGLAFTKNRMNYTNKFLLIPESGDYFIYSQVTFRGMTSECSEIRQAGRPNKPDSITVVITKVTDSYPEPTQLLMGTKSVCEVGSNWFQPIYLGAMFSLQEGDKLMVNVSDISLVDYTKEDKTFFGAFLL

B1: 320-541 (antibody, human IgG1, name in Kabat numbering, V domains shown)
VH: QVQLVQSGAEVKKPGASVKVSCKASGYTFTSYDINWVRQAPGQGLEWMGWLNPNSGQTGYAQKFQGRVTMTADRSTSTAYMELSSLRSEDTAVYYCAREVPETAAFEYWGQGTLVTVSS
VL: QSVLTQPPSVSGAPGQRVTISCTSSSSDIGAGLGVHWYQQLPGTAPKLLIEGYYNRPSGVPDRFSGSKSGTSASLTITGLLPEDEGDYYCQSYDGTLSALFGGGTKLTVLG
notes: full-length human IgG1, lambda
B2: 320-542 (antibody, human IgG1, name in Kabat numbering, V domains shown)
VH: B1 VH with Q57D
VL: B1 VL
notes: as for B1
B3: 320-543 (antibody, human IgG1, name in Kabat numbering, V domains shown)
VH: B1 VH with Q57H
VL: B1 VL
notes: as for B1
B4: 320-544 (antibody, human IgG1, name in Kabat numbering, V domains shown)
VH: B1 VH with Q57K
VL: B1 VL
notes: as for B1
B5: 320-545 (antibody, human IgG1, name in Kabat numbering, V domains shown)
VH: B1 VH with Q57L
VL: B1 VL
notes: as for B1
B6: 320-546 (antibody, human IgG1, name in Kabat numbering, V domains shown)
VH: B1 VH with Q57W
VL: B1 VL
notes: as for B1
B7: 320-548 (antibody, human IgG1, name in Kabat numbering, V domains shown)
VH: B1 VH with Q57N, T58A
VL: B1 VL
notes: as for B1
B8: 320-549 (antibody, human IgG1, name in Kabat numbering, V domains shown)
VH: B1 VH with Q57N, T58S
VL: B1 VL
notes: as for B1
B9: 320-550 (antibody, human IgG1, name in Kabat numbering, V domains shown)
VH: B1 VH with Q57N, T58Q
VL: B1 VL
notes: as for B1
B10: 320-551 (antibody, human IgG1, name in Kabat numbering, V domains shown)
VH: B1 VH with Q57N, T58D
VL: B1 VL
notes: as for B1
B11: 320-552 (antibody, human IgG1, name in Kabat numbering, V domains shown)
VH: B1 VH with Q57N, T58H
VL: B1 VL
notes: as for B1
B12: 320-553 (antibody, human IgG1, name in Kabat numbering, V domains shown)
VH: B1 VH with Q57N, T58K
VL: B1 VL
notes: as for B1
B13: 320-554 (antibody, human IgG1, name in Kabat numbering, V domains shown)
VH: B1 VH with Q57N, T58L
VL: B1 VL
notes: as for B1
B14: 320-555 (antibody, human IgG1, name in Kabat numbering, V domains shown)
VH: B1 VH with Q57N, T58W
VL: B1 VL
notes: as for B1
B15: 320-556 (antibody, human IgG1, name in Kabat numbering, V domains shown)
VH: B1 VH with Q57N, T58Y
VL: B1 VL
notes: as for B1
B16: 320-557 (antibody, human IgG1, name in Kabat numbering, V domains shown)
VH: B1 VH with Q57N, G59A
VL: B1 VL
notes: as for B1
B17: 320-559 (antibody, human IgG1, name in Kabat numbering, V domains shown)
VH: B1 VH with Q57N, G59Q
VL: B1 VL
notes: as for B1
B18: 320-560 (antibody, human IgG1, name in Kabat numbering, V domains shown)
VH: B1 VH with Q57N, G59D
VL: B1 VL
notes: as for B1

Tests used:
[1] = target: T1, human TL1A extracellular domain with …; experiment: SPR Run 7, antibody on Protein A, TL1A 5 ug/mL, timepoint 44
Excerpt: (§1) 1.5. Antibody expression and antigen binding as determined by SPR. Using a CM5 sensor chip (GE Healthcare) Protein A (Pierce) was coupled to the chip surface using an amine coupling kit (GE Healthcare). Protein A was coupled on flow cell 1 and 2 (or alternatively 3 and 4) using a BIACORE® T200. […] The amount of supernatant or purified protein (as well as the concentration) injected during the capture stage varied between runs and is specified in the header of the Tables 3-11. At the end of injection of the supernatant or purified antibody the change in response units was measured. This value was reported as Capture Level in Tables 3-11. […] The response units were measured prior to the end of the dissociation phase. […] The sensorgrams were double referenced (flow cell 2 is subtracted from flow cell 1 and a buffer blank). As there were a large number of antibody variants to screen, these were screened across different runs (Tables 3-11). […] A summary of the conditions used in each run is below:
(§2) 2.1. […] In some experiment the antibodies were purified using Protein A chromatography (See 1.4) and purified antibodies were used in BIACORE® (GE Healthcare) experiments.

[2] = target: T1, human TL1A extracellular domain with …; experiment: SPR Run 7, antibody on Protein A, TL1A 5 ug/mL, timepoint 220
Excerpt: as §1, §2

| Binder | TL1A Binding Level (Early) [1] | TL1A Binding Level (Late) [2] |
| --- | --- | --- |
| B1 | 94 RU | 84 RU |
| B2 | 97 RU | 86 RU |
| B3 | 138 RU | 126 RU |
| B4 | 120 RU | 112 RU |
| B5 | 109 RU | 100 RU |
| B6 | 67 RU | 61 RU |
| B7 | 74 RU | 68 RU |
| B8 | 50 RU | 45 RU |
| B9 | 112 RU | 103 RU |
| B10 | 44 RU | 36 RU |
| B11 | 104 RU | 97 RU |
| B12 | 84 RU | 78 RU |
| B13 | 66 RU | 51 RU |
| B14 | 62 RU | 30 RU |
| B15 | 100 RU | 90 RU |
| B16 | 26 RU | 6 RU |
| B17 | 9 RU | 5 RU |
| B18 | 36 RU | 9 RU |
